The chains are these.
B1: 22236 (protein)
chain: MALPVTALLLPLALLLHAARPDIQMTQSPSSLSASVGDRVTITCKASDHINNWLAWYQQKPGQAPKLLIYGATTLETGVPSRFSGSGSGTDYTLTISSLQPEDFATYYCQQSWNTPWTFGQGTKLEIKRLEDLKNVFPPEVAVFEPSEAEISHTQKATLVCLATGFYPDHVELSWWVNGKEVHSGVCTDPQPLKEQPALNDSRYCLSSRLRVSATFWQNPRNHFRCQVQFYGLSENDEWTQDRAKPVTQIVSAEAWGRADCGFTSESYQQGVLSATILYEILLGKATLYAVLVSALVLMAMVKRKDSRGRAKRSGSGATNFSLLKQAGDVEENPGPTSATMDWIWRILFLVGAATGAHSIYPPLLRTSQAMGSGGPGSGSCQFDLSTRRLKCGSGSCQFDLSTRRLKCGSGGGGSGGGGSGGGGSFEQVQLQQPGAELVKPGASVKMSCKASGYAFSSYWINWMKQKPGQGLEWIGQIYPGDGDTNYNGKFKGRATLTADTSSSTAYMQLSSLTSEDSAVYFCARSITTVVGCAMDYWGQGTSVTVSSTRIQNPDPAVYQLRDSKSSDKSVCLFTDFDSQTNVSQSKDSDVYITDKCVLDMRSMDFKSNSAVAWSNKSDFACANAFNNSIIPEDTFFPSPESSCDVKLVEKSFETDTNLNFQNLSVIGFRILLLKVAGFNLLMTLRLWSSRAKRSGSGVKQTLNFDLLKLAGDVESNPGPSRGHMTEYKPTVRLATRDDVPRAVRTLAAAFADYPATRHTVDPDRHIERVTELQELFLTRVGLDIGKVWVADDGAAVAVWTTPESVEAGAVFAEIGPRMAELSGSRLAAQQQMEGLLAPHRPKEPAWFLATVGVSPDHQGKGLGSAVVLPGVEAAERAGVPAFLETSAPRNLPFYERLGFTVTADVEVPEGPRTWCMTRKPGA
B2: 22240 (protein)
chain: MALPVTALLLPLALLLHAARPDIQMTQSPSSLSASVGDRVTITCKASDHINNWLAWYQQKPGQAPKLLIYGATTLETGVPSRFSGSGSGTDYTLTISSLQPEDFATYYCQQSWNTPWTFGQGTKLEIKRLEDLKNVFPPEVAVFEPSEAEISHTQKATLVCLATGFYPDHVELSWWVNGKEVHSGVCTDPQPLKEQPALNDSRYCLSSRLRVSATFWQNPRNHFRCQVQFYGLSENDEWTQDRAKPVTQIVSAEAWGRADCGFTSESYQQGVLSATILYEILLGKATLYAVLVSALVLMAMVKRKDSRGRAKRSGSGATNFSLLKQAGDVEENPGPTSATMDWIWRILFLVGAATGAHSGPYINIYNAEPANPSEKNSPSTQYAYGGGSQLGPYELWELSHGSGGSGGGGSGGGGSGGGGSFEQVQLQQPGAELVKPGASVKMSCKASGYAFSSYWINWMKQKPGQGLEWIGQIYPGDGDTNYNGKFKGRATLTADTSSSTAYMQLSSLTSEDSAVYFCARSITTVVGCAMDYWGQGTSVTVSSTRIQNPDPAVYQLRDSKSSDKSVCLFTDFDSQTNVSQSKDSDVYITDKCVLDMRSMDFKSNSAVAWSNKSDFACANAFNNSIIPEDTFFPSPESSCDVKLVEKSFETDTNLNFQNLSVIGFRILLLKVAGFNLLMTLRLWSSRAKRSGSGVKQTLNFDLLKLAGDVESNPGPSRGHMTEYKPTVRLATRDDVPRAVRTLAAAFADYPATRHTVDPDRHIERVTELQELFLTRVGLDIGKVWVADDGAAVAVWTTPESVEAGAVFAEIGPRMAELSGSRLAAQQQMEGLLAPHRPKEPAWFLATVGVSPDHQGKGLGSAVVLPGVEAAERAGVPAFLETSAPRNLPFYERLGFTVTADVEVPEGPRTWCMTRKPGA
B3: 22237 (protein)
chain: MALPVTALLLPLALLLHAARPDIQMTQSPSSLSASVGDRVTITCKASDHINNWLAWYQQKPGQAPKLLIYGATTLETGVPSRFSGSGSGTDYTLTISSLQPEDFATYYCQQSWNTPWTFGQGTKLEIKRLEDLKNVFPPEVAVFEPSEAEISHTQKATLVCLATGFYPDHVELSWWVNGKEVHSGVCTDPQPLKEQPALNDSRYCLSSRLRVSATFWQNPRNHFRCQVQFYGLSENDEWTQDRAKPVTQIVSAEAWGRADCGFTSESYQQGVLSATILYEILLGKATLYAVLVSALVLMAMVKRKDSRGRAKRSGSGATNFSLLKQAGDVEENPGPTSATMDWIWRILFLVGAATGAHSGCPKWDAARCSGGGSGPGSGSCQFDLSTRRLKCGSGSCQFDLSTRRLKCGSGGGGSGGGGSGGGGSFEQVQLQQPGAELVKPGASVKMSCKASGYAFSSYWINWMKQKPGQGLEWIGQIYPGDGDTNYNGKFKGRATLTADTSSSTAYMQLSSLTSEDSAVYFCARSITTVVGCAMDYWGQGTSVTVSSTRIQNPDPAVYQLRDSKSSDKSVCLFTDFDSQTNVSQSKDSDVYITDKCVLDMRSMDFKSNSAVAWSNKSDFACANAFNNSIIPEDTFFPSPESSCDVKLVEKSFETDTNLNFQNLSVIGFRILLLKVAGFNLLMTLRLWSSRAKRSGSGVKQTLNFDLLKLAGDVESNPGPSRGHMTEYKPTVRLATRDDVPRAVRTLAAAFADYPATRHTVDPDRHIERVTELQELFLTRVGLDIGKVWVADDGAAVAVWTTPESVEAGAVFAEIGPRMAELSGSRLAAQQQMEGLLAPHRPKEPAWFLATVGVSPDHQGKGLGSAVVLPGVEAAERAGVPAFLETSAPRNLPFYERLGFTVTADVEVPEGPRTWCMTRKPGA
B4: 22241 (protein)
chain: MALPVTALLLPLALLLHAARPDIQMTQSPSSLSASVGDRVTITCKASDHINNWLAWYQQKPGQAPKLLIYGATTLETGVPSRFSGSGSGTDYTLTISSLQPEDFATYYCQQSWNTPWTFGQGTKLEIKRLEDLKNVFPPEVAVFEPSEAEISHTQKATLVCLATGFYPDHVELSWWVNGKEVHSGVCTDPQPLKEQPALNDSRYCLSSRLRVSATFWQNPRNHFRCQVQFYGLSENDEWTQDRAKPVTQIVSAEAWGRADCGFTSESYQQGVLSATILYEILLGKATLYAVLVSALVLMAMVKRKDSRGRAKRSGSGATNFSLLKQAGDVEENPGPTSATMDWIWRILFLVGAATGAHSYINIYNAEPANPSEKNSPSTQYAYGSGSSYINIYNAEPANPSEKNSPSTQYAYGSGGSYINIYNAEPANPSEKNSPSTQYAYGSGSSSYINIYNAEPANPSEKNSPSTQYAYGSGSGSYINIYNAEPANPSEKNSPSTQYAYGPSGSGGGGSGGGGSGGGGSFEQVQLQQPGAELVKPGASVKMSCKASGYAFSSYWINWMKQKPGQGLEWIGQIYPGDGDTNYNGKFKGRATLTADTSSSTAYMQLSSLTSEDSAVYFCARSITTVVGCAMDYWGQGTSVTVSSTRIQNPDPAVYQLRDSKSSDKSVCLFTDFDSQTNVSQSKDSDVYITDKCVLDMRSMDFKSNSAVAWSNKSDFACANAFNNSIIPEDTFFPSPESSCDVKLVEKSFETDTNLNFQNLSVIGFRILLLKVAGFNLLMTLRLWSSRAKRSGSGVKQTLNFDLLKLAGDVESNPGPSRGHMTEYKPTVRLATRDDVPRAVRTLAAAFADYPATRHTVDPDRHIERVTELQELFLTRVGLDIGKVWVADDGAAVAVWTTPESVEAGAVFAEIGPRMAELSGSRLAAQQQMEGLLAPHRPKEPAWFLATVGVSPDHQGKGLGSAVVLPGVEAAERAGVPAFLETSAPRNLPFYERLGFTVTADVEVPEGPRTWCMTRKPGA
B5: 22239 (protein)
chain: MALPVTALLLPLALLLHAARPACPYINIYNAEPANPSEKNSPTQYAYGTGGGGSGGGGSGGGGSEFDIQMTQSPSSLSASVGDRVTITCKASDHINNWLAWYQQKPGQAPKLLIYGATTLETGVPSRFSGSGSGTDYTLTISSLQPEDFATYYCQQSWNTPWTFGQGTKLEIKRLEDLKNVFPPEVAVFEPSEAEISHTQKATLVCLATGFYPDHVELSWWVNGKEVHSGVCTDPQPLKEQPALNDSRYCLSSRLRVSATFWQNPRNHFRCQVQFYGLSENDEWTQDRAKPVTQIVSAEAWGRADCGFTSESYQQGVLSATILYEILLGKATLYAVLVSALVLMAMVKRKDSRGRAKRSGSGATNFSLLKQAGDVEENPGPTSATMDWIWRILFLVGAATGAHSGPQLGPYELWELSHGSGGGGSGGGGSGGGGSFEQVQLQQPGAELVKPGASVKMSCKASGYAFSSYWINWMKQKPGQGLEWIGQIYPGDGDTNYNGKFKGRATLTADTSSSTAYMQLSSLTSEDSAVYFCARSITTVVGCAMDYWGQGTSVTVSSTRIQNPDPAVYQLRDSKSSDKSVCLFTDFDSQTNVSQSKDSDVYITDKCVLDMRSMDFKSNSAVAWSNKSDFACANAFNNSIIPEDTFFPSPESSCDVKLVEKSFETDTNLNFQNLSVIGFRILLLKVAGFNLLMTLRLWSSRAKRSGSGVKQTLNFDLLKLAGDVESNPGPSRGHMTEYKPTVRLATRDDVPRAVRTLAAAFADYPATRHTVDPDRHIERVTELQELFLTRVGLDIGKVWVADDGAAVAVWTTPESVEAGAVFAEIGPRMAELSGSRLAAQQQMEGLLAPHRPKEPAWFLATVGVSPDHQGKGLGSAVVLPGVEAAERAGVPAFLETSAPRNLPFYERLGFTVTADVEVPEGPRTWCMTRKPGA
B6: 22238 (protein)
chain: MALPVTALLLPLALLLHAARPDIQMTQSPSSLSASVGDRVTITCKASDHINNWLAWYQQKPGQAPKLLIYGATTLETGVPSRFSGSGSGTDYTLTISSLQPEDFATYYCQQSWNTPWTFGQGTKLEIKRLEDLKNVFPPEVAVFEPSEAEISHTQKATLVCLATGFYPDHVELSWWVNGKEVHSGVCTDPQPLKEQPALNDSRYCLSSRLRVSATFWQNPRNHFRCQVQFYGLSENDEWTQDRAKPVTQIVSAEAWGRADCGFTSESYQQGVLSATILYEILLGKATLYAVLVSALVLMAMVKRKDSRGRAKRSGSGATNFSLLKQAGDVEENPGPTSATMDWIWRILFLVGAATGAHSQLGPYELWELSHGSGSGSGSQLGPYELWELSHSGGGSGQLGPYELWELSHGSSGPEVQLVESGGGLVQAGGSLRLSCAASGRTFSMGWFRQAPGKEREFVAAITYSGGSPYYADSVKGRFTISRDNAKNTVYLQMNSLKPEDTAVYYCAANPTYGSDWNAENWGQGTQVTVSSGSGGGGSGGGGSGGGGSFEQVQLQQPGAELVKPGASVKMSCKASGYAFSSYWINWMKQKPGQGLEWIGQIYPGDGDTNYNGKFKGRATLTADTSSSTAYMQLSSLTSEDSAVYFCARSITTVVGCAMDYWGQGTSVTVSSTRIQNPDPAVYQLRDSKSSDKSVCLFTDFDSQTNVSQSKDSDVYITDKCVLDMRSMDFKSNSAVAWSNKSDFACANAFNNSIIPEDTFFPSPESSCDVKLVEKSFETDTNLNFQNLSVIGFRILLLKVAGFNLLMTLRLWSSRAKRSGSGVKQTLNFDLLKLAGDVESNPGPSRGHMTEYKPTVRLATRDDVPRAVRTLAAAFADYPATRHTVDPDRHIERVTELQELFLTRVGLDIGKVWVADDGAAVAVWTTPESVEAGAVFAEIGPRMAELSGSRLAAQQQMEGLLAPHRPKEPAWFLATVGVSPDHQGKGLGSAVVLPGVEAAERAGVPAFLETSAPRNLPFYERLGFTVTADVEVPEGPRTWCMTRKPGA

The assay relates to RAJI cells. Nature of the assay: JNG assay, co-culture with RAJI cells. In kind it is cell-based. Conditions: JNG cells expressing construct, co-culture with Raji. The gist of the method: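 Jurkat NFAT-GFP (JNG) cells stably transduced with SARs by lentivirus, with drug selection where the construct carried a resistance gene, then co-cultured with target cells at E:T ~1:2 for ~4–18 h. % GFP-positive cells measured by FACS against parental JNG; +/- to 5+ correspond to ~5–50% GFP-positive.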
Take B1: the “NFAT-GFP ASSAY: Raji” value is “Raji (4+) (refer to approximately 5%, 10%, 20%, 30%, 40% and 50% GFP positive cells)”.
Next, B2: “Raji (3+) (refer to approximately 5%, 10%, 20%, 30%, 40% and 50% GFP positive cells)”.
Next, B3: “Raji (5+) (refer to approximately 5%, 10%, 20%, 30%, 40% and 50% GFP positive cells)”; B4: “Raji (4+) (refer to approximately 5%, 10%, 20%, 30%, 40% and 50% GFP positive cells)”; B5: “Raji (+) (refer to approximately 5%, 10%, 20%, 30%, 40% and 50% GFP positive cells)”.
In the case of B6, the “NFAT-GFP ASSAY: Raji” value was “Raji (+) (refer to approximately 5%, 10%, 20%, 30%, 40% and 50% GFP positive cells)”.

These data come from patent US20230212319A1, “NOVEL ANTIGEN BINDING DOMAINS AND SYNTHETIC ANTIGEN RECEPTORS INCORPORATING THE SAME” (University of Southern California, priority 2020, published 2023).
